Laboratory results: paper PMC2289762 (The Journal of Cell Biology, 1992)

Target: the molecule itself
Assay: cross-linking

B1: centromere protein B (CENP-B), full-size, from HeLa nuclei (natural protein)
chain: MGPKRRQLTFREKSRIIQEVEENPDLRKGEIARRFNIPPSTLSTILKNKRAILASERKYGVASTCRKTNKLSPYDKLEGLLIAWFQQIRAAGLPVKGIILKEKALRIAEELGMDDFTASNGWLDRFRRRHGVVSCSGVARARARNAAPRTPAAPASPAAVPSEGSGGSTTGWRAREEQPPSVAEGYASQDVFSATETSLWYDFLPDQAAGLCGGDGRPRQATQRLSVLLCANADGSEKLPPLVAGKSAKPRAGQAGLPCDYTANSKGGVTTQALAKYLKALDTRMAAESRRVLLLAGRLAAQSLDTSGLRHVQLAFFPPGTVHPLERGVVQQVKGHYRQAMLLKAMAALEGQDPSGLQLGLTEALHFVAAAWQAVEPSDIAACFREAGFGGGPNATITTSLKSEGEEEEEEEEEEEEEEGEGEEEEEEGEEEEEEGGEGEELGEEEEVEEEGDVDSDEEEEEDEESSSEGLEAEDWAQGVVEAGGSFGAYGAQEEAQCPTLHFLEGGEDSDSDSEEEDDEEEDDEDEDDDDDEEDGDEVPVPSFGEAMAYFAMVKRYLTSFPIDDRVQSHILHLEHDLVHVTRKNHARQAGVRGLGHQS
With B1 the “stoichiometry N” value was 2.
